Sequences and labels used below:
B1: E3 ubiquitin-protein ligase CHIP (Homo sapiens), Q9UNE7-1 (parent)
chain: MKGKEEKEGGARLGAGGGSPEKSPSAQELKEQGNRLFVGRKYPEAAACYGRAITRNPLVAVYYTNRALCYLKMQQHEQALADCRRALELDGQSVKAHFFLGQCQLEMESYDEAIANLQRAYSLAKEQRLNFGDDIPSALRIAKKKRWNSIEERRIHQESELHSYLSRLIAAERERELEECQRNHEGDEDDSHVRAQQACIEAKHDKYMADMDELFSQVDEKRKKRDIPDYLCGKISFELMREPCITPSGITYDRKDIEEHLQRVGHFDPVTRSPLTQEQLIPNLAMKEVIDAFISENGWVEDY

The assay covers variants of B1. The note with it: with lrrk2_human LRRK2, Q5S007.
lrrk2_human LRRK2, Q5S007, sequence (Q5S007 whole entry): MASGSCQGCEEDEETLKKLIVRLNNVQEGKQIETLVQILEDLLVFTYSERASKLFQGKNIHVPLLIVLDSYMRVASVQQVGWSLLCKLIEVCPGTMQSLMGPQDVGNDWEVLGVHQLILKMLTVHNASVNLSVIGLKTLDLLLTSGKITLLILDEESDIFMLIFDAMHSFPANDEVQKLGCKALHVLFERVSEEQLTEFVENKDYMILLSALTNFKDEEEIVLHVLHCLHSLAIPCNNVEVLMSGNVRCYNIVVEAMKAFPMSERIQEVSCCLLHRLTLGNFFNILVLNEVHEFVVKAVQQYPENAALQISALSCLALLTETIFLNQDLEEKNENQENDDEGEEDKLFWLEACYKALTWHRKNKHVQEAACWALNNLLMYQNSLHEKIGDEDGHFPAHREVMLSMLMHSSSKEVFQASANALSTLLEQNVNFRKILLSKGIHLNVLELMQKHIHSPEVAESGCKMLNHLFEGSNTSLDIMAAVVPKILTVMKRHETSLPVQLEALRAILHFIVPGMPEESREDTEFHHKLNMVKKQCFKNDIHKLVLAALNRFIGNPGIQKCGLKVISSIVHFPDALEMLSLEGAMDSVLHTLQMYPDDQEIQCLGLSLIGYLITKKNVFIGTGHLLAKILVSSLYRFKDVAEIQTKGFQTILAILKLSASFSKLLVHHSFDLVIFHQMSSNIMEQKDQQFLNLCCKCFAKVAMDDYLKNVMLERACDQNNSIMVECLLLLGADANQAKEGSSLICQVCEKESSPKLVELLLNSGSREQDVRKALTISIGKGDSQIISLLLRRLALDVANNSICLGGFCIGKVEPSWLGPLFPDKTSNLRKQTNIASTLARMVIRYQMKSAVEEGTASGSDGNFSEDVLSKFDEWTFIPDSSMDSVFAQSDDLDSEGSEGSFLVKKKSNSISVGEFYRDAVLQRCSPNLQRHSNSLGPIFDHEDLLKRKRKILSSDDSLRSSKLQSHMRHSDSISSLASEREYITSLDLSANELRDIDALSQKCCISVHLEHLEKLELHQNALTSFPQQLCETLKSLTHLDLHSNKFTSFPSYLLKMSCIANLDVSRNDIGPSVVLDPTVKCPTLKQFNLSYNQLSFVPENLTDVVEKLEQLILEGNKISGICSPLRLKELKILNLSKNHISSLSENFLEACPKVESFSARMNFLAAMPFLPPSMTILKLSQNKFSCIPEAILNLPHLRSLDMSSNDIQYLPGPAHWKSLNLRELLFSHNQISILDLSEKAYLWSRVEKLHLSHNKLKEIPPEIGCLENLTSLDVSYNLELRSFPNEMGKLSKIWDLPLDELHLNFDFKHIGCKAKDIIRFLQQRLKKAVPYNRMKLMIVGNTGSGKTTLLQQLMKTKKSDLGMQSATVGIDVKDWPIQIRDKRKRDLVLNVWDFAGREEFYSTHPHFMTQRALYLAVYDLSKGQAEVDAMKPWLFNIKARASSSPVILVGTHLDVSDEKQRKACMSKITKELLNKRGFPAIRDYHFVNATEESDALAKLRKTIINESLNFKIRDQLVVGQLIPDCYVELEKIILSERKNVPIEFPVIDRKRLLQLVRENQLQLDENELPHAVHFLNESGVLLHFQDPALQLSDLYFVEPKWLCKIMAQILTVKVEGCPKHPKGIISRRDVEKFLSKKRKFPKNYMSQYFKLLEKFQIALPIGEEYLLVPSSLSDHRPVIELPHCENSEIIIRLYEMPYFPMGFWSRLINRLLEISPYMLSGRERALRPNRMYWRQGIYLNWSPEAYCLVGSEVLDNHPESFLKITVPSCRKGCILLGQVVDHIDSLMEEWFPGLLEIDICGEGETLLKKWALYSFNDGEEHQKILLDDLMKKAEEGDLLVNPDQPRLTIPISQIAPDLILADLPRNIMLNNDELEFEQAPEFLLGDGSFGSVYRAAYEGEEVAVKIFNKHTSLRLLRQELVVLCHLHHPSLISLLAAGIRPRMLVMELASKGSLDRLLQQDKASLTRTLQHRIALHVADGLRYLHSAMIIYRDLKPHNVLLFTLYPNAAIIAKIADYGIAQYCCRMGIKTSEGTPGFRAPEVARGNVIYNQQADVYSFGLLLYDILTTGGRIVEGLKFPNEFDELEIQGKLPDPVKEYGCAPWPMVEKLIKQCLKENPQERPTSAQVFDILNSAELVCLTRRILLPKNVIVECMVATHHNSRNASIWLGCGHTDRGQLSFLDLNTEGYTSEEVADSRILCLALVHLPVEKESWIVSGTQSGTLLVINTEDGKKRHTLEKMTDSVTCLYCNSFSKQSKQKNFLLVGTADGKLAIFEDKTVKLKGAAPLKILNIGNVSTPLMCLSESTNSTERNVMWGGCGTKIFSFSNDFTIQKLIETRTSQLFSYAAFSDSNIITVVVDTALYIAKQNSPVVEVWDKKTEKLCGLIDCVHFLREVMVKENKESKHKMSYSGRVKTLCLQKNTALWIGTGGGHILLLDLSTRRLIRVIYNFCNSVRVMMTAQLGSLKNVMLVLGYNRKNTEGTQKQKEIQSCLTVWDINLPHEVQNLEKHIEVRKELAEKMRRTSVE
As to K30C, the “effect of a mutation on the interaction” value was “disrupting interaction”.

These data come from IntAct's records for PubMed 19196961.
